We go through three molecules from patent US20250043028A1 (Hoffmann-La Roche, published 2025).

The target of the experiment is human MCSP expressed on tumor cells (Colo-38, WM266-4, MV-3) (human, UniProt Q6UVK1 30-2322). As to the kind of experiment: cell-based or functional assay.
Sequence of human MCSP expressed on tumor cells (Colo-38, WM266-4, MV-3) (Q6UVK1 30-2322): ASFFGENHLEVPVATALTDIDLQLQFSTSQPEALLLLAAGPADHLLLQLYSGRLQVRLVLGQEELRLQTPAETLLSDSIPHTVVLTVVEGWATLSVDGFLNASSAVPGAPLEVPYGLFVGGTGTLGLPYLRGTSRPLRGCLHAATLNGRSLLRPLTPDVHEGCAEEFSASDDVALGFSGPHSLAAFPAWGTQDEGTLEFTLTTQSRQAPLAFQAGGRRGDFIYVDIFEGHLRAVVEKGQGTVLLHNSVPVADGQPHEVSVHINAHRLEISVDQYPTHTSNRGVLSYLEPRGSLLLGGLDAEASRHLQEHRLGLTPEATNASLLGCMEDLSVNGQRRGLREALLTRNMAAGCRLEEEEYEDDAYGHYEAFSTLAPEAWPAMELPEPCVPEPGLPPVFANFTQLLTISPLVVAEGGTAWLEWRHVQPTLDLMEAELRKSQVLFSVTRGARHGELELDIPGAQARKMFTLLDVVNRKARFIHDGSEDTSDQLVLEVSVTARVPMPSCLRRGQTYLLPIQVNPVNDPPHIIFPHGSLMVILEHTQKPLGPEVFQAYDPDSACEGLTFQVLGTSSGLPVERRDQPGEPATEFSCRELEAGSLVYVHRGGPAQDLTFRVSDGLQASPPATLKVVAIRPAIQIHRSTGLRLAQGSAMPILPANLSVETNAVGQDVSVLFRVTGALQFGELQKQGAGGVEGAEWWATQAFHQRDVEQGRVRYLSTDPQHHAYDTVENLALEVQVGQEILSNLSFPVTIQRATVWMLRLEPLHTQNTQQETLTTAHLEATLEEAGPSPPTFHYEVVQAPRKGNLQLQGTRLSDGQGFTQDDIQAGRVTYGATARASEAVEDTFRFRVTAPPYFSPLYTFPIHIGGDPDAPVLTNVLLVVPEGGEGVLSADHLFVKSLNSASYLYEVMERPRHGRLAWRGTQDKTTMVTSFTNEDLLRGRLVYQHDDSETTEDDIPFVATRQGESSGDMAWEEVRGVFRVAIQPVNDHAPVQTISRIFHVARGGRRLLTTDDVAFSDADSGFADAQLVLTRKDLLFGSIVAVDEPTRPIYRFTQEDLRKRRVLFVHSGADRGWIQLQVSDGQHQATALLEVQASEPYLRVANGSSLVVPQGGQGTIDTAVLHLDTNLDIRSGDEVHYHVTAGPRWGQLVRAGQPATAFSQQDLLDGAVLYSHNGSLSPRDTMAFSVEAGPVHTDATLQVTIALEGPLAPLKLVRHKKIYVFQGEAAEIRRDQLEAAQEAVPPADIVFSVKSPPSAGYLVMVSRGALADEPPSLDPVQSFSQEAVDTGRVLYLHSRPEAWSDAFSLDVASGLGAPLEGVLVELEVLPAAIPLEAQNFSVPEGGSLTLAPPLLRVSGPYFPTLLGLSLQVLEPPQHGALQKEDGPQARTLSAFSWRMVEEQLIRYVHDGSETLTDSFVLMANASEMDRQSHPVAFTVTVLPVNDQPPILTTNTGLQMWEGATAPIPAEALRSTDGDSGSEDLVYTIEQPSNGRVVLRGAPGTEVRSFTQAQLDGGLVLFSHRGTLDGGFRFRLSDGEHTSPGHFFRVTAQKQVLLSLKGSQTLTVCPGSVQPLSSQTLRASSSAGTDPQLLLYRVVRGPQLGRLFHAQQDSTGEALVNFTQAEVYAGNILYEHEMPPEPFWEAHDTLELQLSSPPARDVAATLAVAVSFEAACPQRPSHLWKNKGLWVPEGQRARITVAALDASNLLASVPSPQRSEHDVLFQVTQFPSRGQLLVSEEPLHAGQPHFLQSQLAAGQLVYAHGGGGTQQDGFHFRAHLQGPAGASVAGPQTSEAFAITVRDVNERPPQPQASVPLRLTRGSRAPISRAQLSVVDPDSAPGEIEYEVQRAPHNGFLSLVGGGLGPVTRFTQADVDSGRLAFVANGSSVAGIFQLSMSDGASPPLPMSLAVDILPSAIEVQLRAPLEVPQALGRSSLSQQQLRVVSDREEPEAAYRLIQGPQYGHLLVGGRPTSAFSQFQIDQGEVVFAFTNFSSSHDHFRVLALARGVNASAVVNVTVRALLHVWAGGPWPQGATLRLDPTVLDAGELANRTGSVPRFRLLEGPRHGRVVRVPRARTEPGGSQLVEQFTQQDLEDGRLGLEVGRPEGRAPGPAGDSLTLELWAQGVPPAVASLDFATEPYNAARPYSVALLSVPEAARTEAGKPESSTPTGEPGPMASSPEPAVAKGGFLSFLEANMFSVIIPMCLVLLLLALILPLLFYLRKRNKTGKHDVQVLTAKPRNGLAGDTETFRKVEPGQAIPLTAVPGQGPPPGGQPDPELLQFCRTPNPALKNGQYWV

B1: “1+1 IgG Crossfab”; VL/VH exchange (LC007/V9) (anti-MCSP/anti-huCD3) (bispecific antibody)
chain 1: DIVLTQSPSSLSASLGDRVTISCSASQGIRNYLNWYQQRPDGTVKLLIYYTSSLHSGVPSRFSGSGSGTDYSLTISNLEPEDIATYYCQQYSKLPWTFGGGTKLEIKRTVAAPSVFIFPPSDEQLKSGTASVVCLLNNFYPREAKVQWKVDNALQSGNSQESVTEQDSKDSTYSLSSTLTLSKADYEKHKVYACEVTHQGLSSPVTKSFNRGEC
chain 2: DIQMTQSPSSLSASVGDRVTITCRASQDIRNYLNWYQQKPGKAPKLLIYYTSRLESGVPSRFSGSGSGTDYTLTISSLQPEDFATYYCQQGNTLPWTFGQGTKVEIKSSASTKGPSVFPLAPSSKSTSGGTAALGCLVKDYFPEPVTVSWNSGALTSGVHTFPAVLQSSGLYSLSSVVTVPSSSLGTQTYICNVNHKPSNTKVDKKVEPKSCGGGGSGGGGSEVQLQESGPGLVKPSQSLSLTCSVTGYSITSGYYWNWIRQFPGNKLEWMGYITYDGSNNYNPSLKNRISITRDTSKNQFFLKLNSVTTEDTATYYCADFDYWGQGTTLTVSSASTKGPSVFPLAPSSKSTSGGTAALGCLVKDYFPEPVTVSWNSGALTSGVHTFPAVLQSSGLYSLSSVVTVPSSSLGTQTYICNVNHKPSNTKVDKKVEPKSCDKTHTCPPCPAPEAAGGPSVFLFPPKPKDTLMISRTPEVTCVVVDVSHEDPEVKFNWYVDGVEVHNAKTKPREEQYNSTYRVVSVLTVLHQDWLNGKEYKCKVSNKALGAPIEKTISKAKGQPREPQVCTLPPSRDELTKNQVSLSCAVKGFYPSDIAVEWESNGQPENNYKTTPPVLDSDGSFFLVSKLTVDKSRWQQGNVFSCSVMHEALHNHYTQKSLSLSPGK
chain 3: EVQLVESGGGLVQPGGSLRLSCAASGYSFTGYTMNWVRQAPGKGLEWVALINPYKGVSTYNQKFKDRFTISVDKSKNTAYLQMNSLRAEDTAVYYCARSGYYGDSDWYFDVWGQGTLVTVSSASVAAPSVFIFPPSDEQLKSGTASVVCLLNNFYPREAKVQWKVDNALQSGNSQESVTEQDSKDSTYSLSSTLTLSKADYEKHKVYACEVTHQGLSSPVTKSFNRGEC
chain 4: not shown
Consider B1, for which the “EC50 of killing (LDH release) of MV-3 cells, human PBMCs, E:T 10:1, 21 h” value turned out to be 0.0409 nM and the “EC50 of killing (LDH release) of WM266-4 cells, human PBMCs, E:T 10:1, 21 h” value came to 0.0284 nM.

B2: “1+1 CrossMab”; CL/CH1 exchange (LC007/V9) (anti-MCSP/anti-huCD3) (bispecific antibody)
chain 1: B1 chain 1
chain 2: EVQLQESGPGLVKPSQSLSLTCSVTGYSITSGYYWNWIRQFPGNKLEWMGYITYDGSNNYNPSLKNRISITRDTSKNQFFLKLNSVTTEDTATYYCADFDYWGQGTTLTVSSASTKGPSVFPLAPSSKSTSGGTAALGCLVKDYFPEPVTVSWNSGALTSGVHTFPAVLQSSGLYSLSSVVTVPSSSLGTQTYICNVNHKPSNTKVDKKVEPKSCDKTHTCPPCPAPEAAGGPSVFLFPPKPKDTLMISRTPEVTCVVVDVSHEDPEVKFNWYVDGVEVHNAKTKPREEQYNSTYRVVSVLTVLHQDWLNGKEYKCKVSNKALGAPIEKTISKAKGQPREPQVCTLPPSRDELTKNQVSLSCAVKGFYPSDIAVEWESNGQPENNYKTTPPVLDSDGSFFLVSKLTVDKSRWQQGNVFSCSVMHEALHNHYTQKSLSLSPGK
chain 3: DIQMTQSPSSLSASVGDRVTITCRASQDIRNYLNWYQQKPGKAPKLLIYYTSRLESGVPSRFSGSGSGTDYTLTISSLQPEDFATYYCQQGNTLPWTFGQGTKVEIKSSASTKGPSVFPLAPSSKSTSGGTAALGCLVKDYFPEPVTVSWNSGALTSGVHTFPAVLQSSGLYSLSSVVTVPSSSLGTQTYICNVNHKPSNTKVDKKVEPKSC
chain 4: not shown
For the molecule B2, the “EC50 of killing (LDH release) of MV-3 cells, human PBMCs, E:T 10:1, 21 h” value is 0.0884 nM and the “EC50 of killing (LDH release) of WM266-4 cells, human PBMCs, E:T 10:1, 21 h” value is 0.0539 nM.

B3: “2+1 IgG Crossfab”; CL/CH1 exchange (M4-3 ML2/V9) (anti-MCSP/anti-huCD3) (bispecific antibody)
chain 1: B2 chain 3
chain 2: not shown
chain 3: QVQLQESGPGLVKPSQTLSLTCTVSGGSITSGYYWNWIRQHPGKGLEWIGYITYDGSNNYNPSLKSRVTISRDTSKNQFSLKLSSVTAADTAVYYCADFDYWGQGTLVTVSSASTKGPSVFPLAPSSKSTSGGTAALGCLVKDYFPEPVTVSWNSGALTSGVHTFPAVLQSSGLYSLSSVVTVPSSSLGTQTYICNVNHKPSNTKVDKKVEPKSCDKTHTCPPCPAPEAAGGPSVFLFPPKPKDTLMISRTPEVTCVVVDVSHEDPEVKFNWYVDGVEVHNAKTKPREEQYNSTYRVVSVLTVLHQDWLNGKEYKCKVSNKALGAPIEKTISKAKGQPREPQVCTLPPSRDELTKNQVSLSCAVKGFYPSDIAVEWESNGQPENNYKTTPPVLDSDGSFFLVSKLTVDKSRWQQGNVFSCSVMHEALHNHYTQKSLSLSPGK
chain 4: not shown
B3: the “EC50 of killing (LDH release) of MV-3 cells, human PBMCs, E:T 10:1, 27 h” value is roughly 0.0117 nM and the “EC50 of killing (LDH release) of WM266-4 cells, human PBMCs, E:T 10:1, 26 h” value turned out to be 0.0129 nM.
